Like-named read-outs stand apart in the source and are kept apart here.
Legend:
Experiment in all cases: single-molecule TIRF colocalisation with deconvolution of colocalisation times
[1] = biological target: N-terminally SNAP-tagged human β2AR carrying the vasopressin V2 receptor C-tail (SNAP-β2V2)
[2] = biological target: N-terminally SNAP-tagged human β2AR carrying the vasopressin V2 receptor C-tail (SNAP-β2V2); remark: listed apart in the source
[3] = biological target: N-terminally SNAP-tagged human β2AR carrying the vasopressin V2 receptor C-tail (SNAP-β2V2); remark: listed apart in the source

Measured: average interaction time

C-terminally Halo-tagged bovine β-arrestin 2 (βArr2-Halo) (from UniProt P32120-2 1-409) (natural protein)
1 s: all assays above

From doi:10.1101/2022.11.15.516577
